Tests used:
Assay in all cases: holdup assay
Parameters in all cases: key: below the threshold = too weak to quantify, mostly under pKd 3.1 to 4
HTRA4, P83105 = target: T1, HTRA4, P83105
T1 sequence (P83105 378-476, limits assumed, looked up): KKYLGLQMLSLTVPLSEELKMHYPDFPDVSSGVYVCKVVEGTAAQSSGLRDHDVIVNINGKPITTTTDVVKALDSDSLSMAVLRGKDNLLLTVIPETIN

MAGI2_6, Q86UL8 = target: MAGI2_6, Q86UL8
LDB3, O75112 = target: LDB3, O75112
MAGI2_4, Q86UL8 = target: MAGI2_4, Q86UL8
RHPN1, Q8TCX5 = target: T2, RHPN1, Q8TCX5
T2 sequence (Q8TCX5 508-602, limits assumed, looked up): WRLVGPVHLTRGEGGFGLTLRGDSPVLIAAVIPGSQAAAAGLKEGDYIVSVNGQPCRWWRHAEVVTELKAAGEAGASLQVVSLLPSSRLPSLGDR

GRIP1_5, Q9Y3R0 = target: T3, GRIP1_5, Q9Y3R0
T3 sequence (Q9Y3R0 568-668, limits assumed, looked up): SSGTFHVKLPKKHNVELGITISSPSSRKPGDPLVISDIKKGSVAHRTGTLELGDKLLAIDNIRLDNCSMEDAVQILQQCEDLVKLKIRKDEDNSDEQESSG

LNX2_2, Q8N448 = target: T4, LNX2_2, Q8N448
T4 sequence (Q8N448 334-432, limits assumed, looked up): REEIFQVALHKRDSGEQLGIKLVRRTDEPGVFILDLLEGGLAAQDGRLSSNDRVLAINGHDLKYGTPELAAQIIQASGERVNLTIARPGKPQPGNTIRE

Inadl_2, Q8NI35 = target: Inadl_2, Q8NI35
Chain of Inadl_2, Q8NI35 (Q8NI35 238-335): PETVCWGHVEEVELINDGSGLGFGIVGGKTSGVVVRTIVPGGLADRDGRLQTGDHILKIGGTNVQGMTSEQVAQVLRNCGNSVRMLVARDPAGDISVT

DLG1_1, Q12959 = target: DLG1_1, Q12959
GRIP1_3, Q9Y3R0 = target: T5, GRIP1_3, Q9Y3R0
T5 sequence (Q9Y3R0 247-346, limits assumed, looked up): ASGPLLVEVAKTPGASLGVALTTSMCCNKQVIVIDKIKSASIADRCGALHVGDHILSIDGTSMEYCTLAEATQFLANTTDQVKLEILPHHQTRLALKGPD

MAGI1_2, Q96QZ7 = target: MAGI1_2, Q96QZ7
Chain of MAGI1_2, Q96QZ7 (Q96QZ7 456-580): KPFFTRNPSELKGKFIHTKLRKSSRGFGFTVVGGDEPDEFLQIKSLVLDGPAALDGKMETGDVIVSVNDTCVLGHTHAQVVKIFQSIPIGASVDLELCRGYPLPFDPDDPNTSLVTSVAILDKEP

PDZRN4_1, Q6ZMN7 = target: PDZRN4_1, Q6ZMN7
Chain of PDZRN4_1, Q6ZMN7 (Q6ZMN7 213-318): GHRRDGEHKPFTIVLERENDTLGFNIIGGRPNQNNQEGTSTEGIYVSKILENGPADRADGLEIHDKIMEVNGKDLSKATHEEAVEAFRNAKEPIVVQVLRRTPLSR

SNTG1, Q9NSN8 = target: T6, SNTG1, Q9NSN8
T6 sequence (Q9NSN8 52-150, limits assumed, looked up): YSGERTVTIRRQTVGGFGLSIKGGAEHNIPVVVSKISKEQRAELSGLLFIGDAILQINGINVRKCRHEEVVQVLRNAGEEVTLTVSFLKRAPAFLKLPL

GRIP2_5, Q9C0E4 = target: GRIP2_5, Q9C0E4
Chain of GRIP2_5, Q9C0E4 (Q9C0E4 544-642): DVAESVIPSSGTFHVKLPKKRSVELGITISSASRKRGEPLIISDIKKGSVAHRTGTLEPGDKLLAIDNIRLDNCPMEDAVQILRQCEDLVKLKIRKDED

NHERF3_1, Q5T2W1 = target: T7, NHERF3_1, Q5T2W1
T7 sequence (Q5T2W1 4-100, limits assumed, looked up): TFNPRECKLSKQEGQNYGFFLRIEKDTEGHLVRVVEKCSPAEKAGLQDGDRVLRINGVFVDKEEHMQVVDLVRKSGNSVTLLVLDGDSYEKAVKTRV

APBA2_1, Q99767 = target: T8, APBA2_1, Q99767
T8 sequence (Q99767 563-664, limits assumed, looked up): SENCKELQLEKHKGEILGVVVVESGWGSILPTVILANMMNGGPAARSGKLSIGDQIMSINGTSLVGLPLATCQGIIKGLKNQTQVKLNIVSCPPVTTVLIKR

FRMPD2_3, Q68DX3 = target: FRMPD2_3, Q68DX3
Chain of FRMPD2_3, Q68DX3 (Q68DX3 1073-1166): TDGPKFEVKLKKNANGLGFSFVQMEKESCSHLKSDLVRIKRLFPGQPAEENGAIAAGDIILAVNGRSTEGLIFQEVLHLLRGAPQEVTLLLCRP

MAGI1_1, Q96QZ7 = target: MAGI1_1, Q96QZ7
Chain of MAGI1_1, Q96QZ7 (Q96QZ7 1-106): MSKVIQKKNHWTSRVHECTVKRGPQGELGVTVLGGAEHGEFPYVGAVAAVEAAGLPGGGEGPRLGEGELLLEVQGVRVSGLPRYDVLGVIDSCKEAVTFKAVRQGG

Inadl_6, Q8NI35 = target: Inadl_6, Q8NI35
Chain of Inadl_6, Q8NI35 (Q8NI35 1058-1167): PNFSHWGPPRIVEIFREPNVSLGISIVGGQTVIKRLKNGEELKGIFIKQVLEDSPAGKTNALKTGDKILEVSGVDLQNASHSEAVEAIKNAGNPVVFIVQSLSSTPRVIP

Inadl_4, Q8NI35 = target: Inadl_4, Q8NI35
Chain of Inadl_4, Q8NI35 (Q8NI35 547-651): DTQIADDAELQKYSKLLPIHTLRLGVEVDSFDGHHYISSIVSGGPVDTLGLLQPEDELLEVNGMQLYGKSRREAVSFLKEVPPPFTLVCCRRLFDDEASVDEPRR

ARHGEF11, O15085 = target: T9, ARHGEF11, O15085
T9 sequence (O15085 42-136, limits assumed, looked up): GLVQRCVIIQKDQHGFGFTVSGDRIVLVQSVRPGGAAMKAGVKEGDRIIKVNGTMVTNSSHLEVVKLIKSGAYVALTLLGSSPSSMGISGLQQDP

DLG4_1, P78352 = target: DLG4_1, P78352
Chain of DLG4_1, P78352 (P78352 62-152): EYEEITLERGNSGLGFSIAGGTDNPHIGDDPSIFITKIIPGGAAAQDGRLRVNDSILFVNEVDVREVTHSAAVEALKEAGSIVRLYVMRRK

Inadl_5, Q8NI35 = target: Inadl_5, Q8NI35
Chain of Inadl_5, Q8NI35 (Q8NI35 673-780): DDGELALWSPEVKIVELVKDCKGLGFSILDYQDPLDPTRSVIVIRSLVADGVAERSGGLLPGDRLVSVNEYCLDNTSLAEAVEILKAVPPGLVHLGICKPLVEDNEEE

FRMPD4, Q14CM0 = target: FRMPD4, Q14CM0
Chain of FRMPD4, Q14CM0 (Q14CM0 67-160): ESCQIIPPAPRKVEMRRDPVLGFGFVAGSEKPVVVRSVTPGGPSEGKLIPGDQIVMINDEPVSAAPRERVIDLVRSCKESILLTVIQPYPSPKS

DVL3, Q92997 = target: T10, DVL3, Q92997
T10 sequence (Q92997 244-331, limits assumed, looked up): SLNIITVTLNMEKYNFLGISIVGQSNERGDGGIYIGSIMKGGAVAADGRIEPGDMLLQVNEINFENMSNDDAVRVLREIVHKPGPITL

DLG3_1, Q92796 = target: T11, DLG3_1, Q92796
T11 sequence (Q92796 125-227, limits assumed, looked up): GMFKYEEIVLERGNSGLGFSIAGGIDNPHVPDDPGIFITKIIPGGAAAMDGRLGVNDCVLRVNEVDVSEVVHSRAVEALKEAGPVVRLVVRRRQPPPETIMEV

TJP2_1, Q9UDY2 = target: TJP2_1, Q9UDY2
Chain of TJP2_1, Q9UDY2 (Q9UDY2 24-128): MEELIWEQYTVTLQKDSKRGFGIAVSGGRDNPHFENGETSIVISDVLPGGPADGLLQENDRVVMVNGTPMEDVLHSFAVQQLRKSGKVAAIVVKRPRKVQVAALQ

[1] = plain residues with an end cap or a label only (N-terminal biotin on a linker: ahx)
[2] = plain residues with an end cap or a label only (N-terminal biotin on a linker: ttds)

Chain of MAGI2_6, Q86UL8 (Q86UL8 1141-1229): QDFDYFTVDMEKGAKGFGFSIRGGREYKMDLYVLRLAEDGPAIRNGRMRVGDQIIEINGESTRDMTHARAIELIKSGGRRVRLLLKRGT
Chain of MAGI2_4, Q86UL8 (Q86UL8 772-865): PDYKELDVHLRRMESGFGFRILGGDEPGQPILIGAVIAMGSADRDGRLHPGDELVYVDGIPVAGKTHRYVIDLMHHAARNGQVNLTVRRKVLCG
Chain of LDB3, O75112 (O75112 1-94): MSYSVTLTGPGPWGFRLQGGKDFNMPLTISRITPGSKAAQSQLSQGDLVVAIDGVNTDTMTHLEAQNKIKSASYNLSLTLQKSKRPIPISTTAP

SSSNSEDTEM [NHERF3, Q5T2W1] was tested, and the pKd (HTRA4, P83105; [1]) was “below the threshold”, the pKd (MAGI2_6, Q86UL8; [1]) was “below the threshold” and the pKd (LDB3, O75112; [1]) was “below the threshold”. The pKd (MAGI2_4, Q86UL8; [1]) was “below the threshold”, the pKd (RHPN1, Q8TCX5; [1]) was 3.98 and the pKd (GRIP1_5, Q9Y3R0; [1]) was “below the threshold”. For the same binder, the pKd (LNX2_2, Q8N448; [1]) was “below the threshold”, the pKd (Inadl_2, Q8NI35; [1]) was “below the threshold” and the pKd (DLG1_1, Q12959; [1]) was “below the threshold”. For the same binder, the pKd (GRIP1_3, Q9Y3R0; [1]) was “below the threshold”, the pKd (MAGI1_2, Q96QZ7; [1]) was “below the threshold” and the pKd (PDZRN4_1, Q6ZMN7; [1]) was “below the threshold”. For the same binder, the pKd (SNTG1, Q9NSN8; [1]) was “below the threshold”, the pKd (GRIP2_5, Q9C0E4; [1]) was “below the threshold” and the pKd (NHERF3_1, Q5T2W1; [1]) was “below the threshold”. For the same binder, the pKd (APBA2_1, Q99767; [1]) was “below the threshold”, the pKd (FRMPD2_3, Q68DX3; [1]) was “below the threshold” and the pKd (MAGI1_1, Q96QZ7; [1]) was “below the threshold”. For the same binder, the pKd (Inadl_6, Q8NI35; [1]) was “below the threshold”, the pKd (Inadl_4, Q8NI35; [1]) was “below the threshold” and the pKd (ARHGEF11, O15085; [1]) was “below the threshold”. For the same binder, the pKd (DLG4_1, P78352; [1]) was “below the threshold”, the pKd (Inadl_5, Q8NI35; [1]) was “below the threshold” and the pKd (FRMPD4, Q14CM0; [1]) was “below the threshold”. The pKd (DVL3, Q92997; [1]) was “below the threshold”, the pKd (DLG3_1, Q92796; [1]) was “below the threshold” and the pKd (TJP2_1, Q9UDY2; [1]) was “below the threshold”.

In the case of RNCSTNDSLL [ADRB2, P07550], the pKd (HTRA4, P83105; [1]) is reported as “below the threshold”, the pKd (MAGI2_6, Q86UL8; [1]) is reported as “below the threshold” and the pKd (LDB3, O75112; [1]) is reported as “below the threshold”. The pKd (MAGI2_4, Q86UL8; [1]) was 3.55, the pKd (RHPN1, Q8TCX5; [1]) was 3.94 and the pKd (GRIP1_5, Q9Y3R0; [1]) was “below the threshold”. For the same binder, the pKd (LNX2_2, Q8N448; [1]) was “below the threshold”, the pKd (Inadl_2, Q8NI35; [1]) was “below the threshold” and the pKd (DLG1_1, Q12959; [1]) was “below the threshold”. The pKd (GRIP1_3, Q9Y3R0; [1]) was “below the threshold”, the pKd (MAGI1_2, Q96QZ7; [1]) was “below the threshold” and the pKd (PDZRN4_1, Q6ZMN7; [1]) was “below the threshold”. For the same binder, the pKd (SNTG1, Q9NSN8; [1]) was “below the threshold”, the pKd (GRIP2_5, Q9C0E4; [1]) was “below the threshold” and the pKd (NHERF3_1, Q5T2W1; [1]) was 3.89. For the same binder, the pKd (APBA2_1, Q99767; [1]) was “below the threshold”, the pKd (FRMPD2_3, Q68DX3; [1]) was “below the threshold” and the pKd (MAGI1_1, Q96QZ7; [1]) was “below the threshold”. The pKd (Inadl_6, Q8NI35; [1]) was “below the threshold”, the pKd (Inadl_4, Q8NI35; [1]) was “below the threshold” and the pKd (ARHGEF11, O15085; [1]) was “below the threshold”. The pKd (DLG4_1, P78352; [1]) was “below the threshold”, the pKd (Inadl_5, Q8NI35; [1]) was “below the threshold” and the pKd (FRMPD4, Q14CM0; [1]) was 3.64. The pKd (DVL3, Q92997; [1]) was “below the threshold”, the pKd (DLG3_1, Q92796; [1]) was “below the threshold” and the pKd (TJP2_1, Q9UDY2; [1]) was “below the threshold”.

In the case of SPLHSLETSL [ATP2B1, P20020], the pKd (HTRA4, P83105; [2]) is reported as 3.48, the pKd (MAGI2_6, Q86UL8; [2]) is reported as 4.24 and the pKd (LDB3, O75112; [2]) is reported as “below the threshold”. For the same binder, the pKd (MAGI2_4, Q86UL8; [2]) was 3.48, the pKd (RHPN1, Q8TCX5; [2]) was 4.75 and the pKd (GRIP1_5, Q9Y3R0; [2]) was “below the threshold”. For the same binder, the pKd (LNX2_2, Q8N448; [2]) was “below the threshold”, the pKd (Inadl_2, Q8NI35; [2]) was “below the threshold” and the pKd (DLG1_1, Q12959; [2]) was 4.12. For the same binder, the pKd (GRIP1_3, Q9Y3R0; [2]) was “below the threshold”, the pKd (MAGI1_2, Q96QZ7; [2]) was 3.78 and the pKd (PDZRN4_1, Q6ZMN7; [2]) was 5.24. The pKd (SNTG1, Q9NSN8; [2]) was 4.36, the pKd (GRIP2_5, Q9C0E4; [2]) was “below the threshold” and the pKd (NHERF3_1, Q5T2W1; [2]) was 5.24. For the same binder, the pKd (APBA2_1, Q99767; [2]) was “below the threshold”, the pKd (FRMPD2_3, Q68DX3; [2]) was “below the threshold” and the pKd (MAGI1_1, Q96QZ7; [2]) was “below the threshold”. The pKd (Inadl_6, Q8NI35; [2]) was 4.31, the pKd (Inadl_4, Q8NI35; [2]) was “below the threshold” and the pKd (ARHGEF11, O15085; [2]) was 4.27. The pKd (DLG4_1, P78352; [2]) was 4.06, the pKd (Inadl_5, Q8NI35; [2]) was “below the threshold” and the pKd (FRMPD4, Q14CM0; [2]) was 4.45. The pKd (DVL3, Q92997; [2]) was “below the threshold”, the pKd (DLG3_1, Q92796; [2]) was 3.62 and the pKd (TJP2_1, Q9UDY2; [2]) was 3.49.

DPLTPSRSQL [DGKK, Q5KSL6] was tested, and the pKd (HTRA4, P83105; [2]) was “below the threshold”, the pKd (MAGI2_6, Q86UL8; [2]) was “below the threshold” and the pKd (LDB3, O75112; [2]) was “below the threshold”. The pKd (MAGI2_4, Q86UL8; [2]) was “below the threshold”, the pKd (RHPN1, Q8TCX5; [2]) was “below the threshold” and the pKd (GRIP1_5, Q9Y3R0; [2]) was “below the threshold”. For the same binder, the pKd (LNX2_2, Q8N448; [2]) was “below the threshold”, the pKd (Inadl_2, Q8NI35; [2]) was “below the threshold” and the pKd (DLG1_1, Q12959; [2]) was 4.01. The pKd (GRIP1_3, Q9Y3R0; [2]) was “below the threshold”, the pKd (MAGI1_2, Q96QZ7; [2]) was “below the threshold” and the pKd (PDZRN4_1, Q6ZMN7; [2]) was “below the threshold”. For the same binder, the pKd (SNTG1, Q9NSN8; [2]) was “below the threshold”, the pKd (GRIP2_5, Q9C0E4; [2]) was “below the threshold” and the pKd (NHERF3_1, Q5T2W1; [2]) was “below the threshold”. The pKd (APBA2_1, Q99767; [2]) was “below the threshold”, the pKd (FRMPD2_3, Q68DX3; [2]) was “below the threshold” and the pKd (MAGI1_1, Q96QZ7; [2]) was “below the threshold”. The pKd (Inadl_6, Q8NI35; [2]) was “below the threshold”, the pKd (Inadl_4, Q8NI35; [2]) was “below the threshold” and the pKd (ARHGEF11, O15085; [2]) was “below the threshold”. The pKd (DLG4_1, P78352; [2]) was “below the threshold”, the pKd (Inadl_5, Q8NI35; [2]) was “below the threshold” and the pKd (FRMPD4, Q14CM0; [2]) was “below the threshold”. The pKd (DVL3, Q92997; [2]) was “below the threshold”, the pKd (DLG3_1, Q92796; [2]) was “below the threshold” and the pKd (TJP2_1, Q9UDY2; [2]) was “below the threshold”.

From paper PMC9482650, “Quantitative fragmentomics allow affinity mapping of interactomes” (Nature Communications, 2022)
